From paper PMC3999857, “Periodic DNA patrolling underlies diverse functions of Pif1 on R-loops and G-rich DNA” (eLife, 2014)

Substrate: Nc1ncnc2c1ncn2[C@@H]1O[C@H](COP(=O)(O)OP(=O)(O)OP(=O)(O)O)[C@@H](O)[C@H]1O
Assay: purified protein
Type: biochemical, Saccharomyces cerevisiae
Conditions: 3′-(dT)40 partial duplex DNA, monomer condition (10 nM Pif1 then wash), 5 mM MgCl2, 60 mM KCl, pH 7.5, 22 °C

B1: Pif1 (Saccharomyces cerevisiae S288C) (protein)
chain: RSNNFIQAQLKHPSILSKEDLDLLSDSDDWEEPDCIQLETEKQEKKIITDIHKEDPVDKKPMRDKNVMNFINKDSPLSWNDMFKPSIIQPPQLISENSFDQSSQKKSRSTGFKNPLRPALKKESSFDELQNNSISQERSLEMINENEKKKMQFGEKIAVLTQRPSFTELQNDQDDSNLNPHNGVKVKIPICLSKEQESIIKLAENGHNIFYTGSAGTGKSILLREMIKVLKGIYGRENVAVTASTGLAACNIGGITIHSFAGIGLGKGDADKLYKKVRRSRKHLRRWENIGALVVDEISMLDAELLDKLDFIARKIRKNHQPFGGIQLIFCGDFFQLPPVSKDPNRPTKFAFESKAWKEGVKMTIMLQKVFRQRGDVKFIDMLNRMRLGNIDDETEREFKKLSRPLPDDEIIPAELYSTRMEVERANNSRLSKLPGQVHIFNAIDGGALEDEELKERLLQNFLAPKELHLKVGAQVMMVKNLDATLVNGSLGKVIEFMDPETYFCYEALTNDPSMPPEKLETWAENPSKLKAAMEREQSDGEESAVASRKSSVKEGFAKSDIGEPVSPLDSSVFDFMKRVKTDDEVVLENIKRKEQLMQTIHQNSAGKRRLPLVRFKASDMSTRMVLVEPEDWAIEDENEKPLVSRVQLPLMLAWSLSIHKSQGQTLPKVKVDLRRVFEKGQAYVALSRAVSREGLQVLNFDRTRIKAHQKVIDFYLTLSSAESAYKQLEADEQVKKRKLDYAPGPKYKAKSKSKSNSPAPISATTQSNNGIAAMLQRHSRKRFQLKKESNSNQVHSLVSDEPRGQDTEDHILE
notes: purified His6-tagged Pif1, purification as in Boule et al. 2005; monomer
  Km: 110 ± 17 µM
